Experimental data: patent US20210246224A1 (Regeneron, published 2021)

How the values were obtained:
[1] = molecular target: T1, human HER2 expressed on cells (cancer cell lines and normal primary cultures) (human, UniProt P04626 23-1255); test: imaging, Alexa647-labelled antibody 10 ug/mL at 4 C on MDA-MB-453 cells; signal per nuclei, normalised to the highest cell line
T1 construct: Endogenous HER2 of the cell lines; the same cells also express APLP2; also called human epidermal growth factor receptor 2
Protocol: (§1) After, cells were washed twice with cold DMEM+10% FBS. […] After, the solution was replaced with DPBS/CM. Binding of the bispecific antibodies to each of the cell types was measured using an Image Xpress^Micro automatic microscope (Molecular Devices). […] (See also FIG. 2.)
(§2) The signal of antibody binding (mean intensity fluorescence of Alexa647) divided by the nuclei signals was determined for each condition using MetaXpress software (Molecular Devices). Values were normalized to the cell line displaying the highest antibody binding signal.

[2] = molecular target: T2, human APLP2 extracellular domain expressed with a C-terminal myc-myc-hexahistidine tag (human, UniProt Q06481 32-692); test: SPR (Biacore 4000), antibody captured on anti-human Fc, hAPLP2-MMH injected, 37 C
T2 construct: also called hAPLP2-MMH; APLP2.mmh
Protocol: (§3) Equilibrium dissociation constants (KD values) for HER2 and APLP2 binding to purified anti-HER2xAPLP2 bispecific and parental antibodies were determined using a real-time surface plasmon resonance biosensor using a Biacore 4000 instrument. The Biacore sensor surface was first derivatized by amine coupling with a monoclonal mouse anti-human Fc antibody (GE, Cat #BR-1008-39) to capture anti-HER2xAPLP2 bispecific monoclonal antibodies. […] Kinetic association rate constant (ka) and dissociation rate constant (kd) were determined by fitting the real-time sensorgrams to a 1:1 binding model using Scrubber 2.0c curve fitting software. Binding dissociation equilibrium constants (KD) and dissociative half-lives (t1/2) were calculated from the kinetic rate constants as: […]

[3] = molecular target: T2, human APLP2 extracellular domain …; test: SPR, antibody captured, hAPLP2-MMH injected, 25 C
[4] = molecular target: T1, human HER2 expressed on cells (cancer …); test: imaging, Alexa647-labelled antibody 10 ug/mL at 4 C on BT483 cells; signal per nuclei, normalised to the highest cell line
Protocol: (§4) To test the ability of bispecific anti-HER2xAPLP2 molecules described herein to bind to cells lines expressing various levels of HER2, a high content imaging assay was performed. […] Cells were plated on collagen-coated, black wall, 96-well, optical plates (Greiner, Cat #655936) at 2.5×10⁵ cells per well in their appropriate culture media, which is described for each cell line/culture in Table 6, and incubated overnight at 37° C. in 5% CO₂.
as §1, §2

[5] = molecular target: T1, human HER2 expressed on cells (cancer …); test: imaging, Alexa647-labelled antibody 10 ug/mL at 4 C on MDA-MB-468 cells; signal per nuclei, normalised to the highest cell line
Protocol: as §1, §2

[6] = molecular target: T1, human HER2 expressed on cells (cancer …); test: imaging, Alexa647-labelled antibody 10 ug/mL at 4 C on NBE cells; signal per nuclei, normalised to the highest cell line
Protocol: as §1, §2

[7] = molecular target: T3, human HER2 extracellular domain expressed with a C-terminal myc-myc-hexahistidine tag (human, UniProt P04626 23-652); test: SPR (Biacore 4000), antibody captured on anti-human Fc, hHER2-MMH injected, 37 C
T3 construct: also called hHER2-MMH; HER2.mmh
Protocol: as §3

[8] = molecular target: T1, human HER2 expressed on cells (cancer …); test: imaging, Alexa647-labelled antibody 10 ug/mL at 4 C on MDA-MB-361 cells; signal per nuclei, normalised to the highest cell line
Protocol: as §1, §2

[9] = molecular target: T1, human HER2 expressed on cells (cancer …); test: imaging, Alexa647-labelled antibody 10 ug/mL at 4 C on T47D cells; signal per nuclei, normalised to the highest cell line
Protocol: as §1, §2

[10] = molecular target: T1, human HER2 expressed on cells (cancer …); test: imaging, Alexa647-labelled antibody 10 ug/mL at 4 C on NLE cells; signal per nuclei, normalised to the highest cell line
Protocol: as §1, §2

[11] = molecular target: T1, human HER2 expressed on cells (cancer …); test: imaging, Alexa647-labelled antibody 10 ug/mL at 4 C on JIMT-1 cells; signal per nuclei, normalised to the highest cell line
Protocol: as §1, §2

[12] = molecular target: T2, human APLP2 extracellular domain …; test: SPR, antibody captured, hAPLP2-MMH injected, 25 C (second row for this antibody)
[13] = molecular target: T1, human HER2 expressed on cells (cancer …); test: imaging, Alexa647-labelled antibody 10 ug/mL at 4 C on SKBR3 cells; signal per nuclei, normalised to the highest cell line
Protocol: as §4, §1, §2

[14] = molecular target: T1, human HER2 expressed on cells (cancer …); test: imaging, Alexa647-labelled antibody 10 ug/mL at 4 C on MCF7 cells; signal per nuclei, normalised to the highest cell line
Protocol: as §1, §2

[15] = molecular target: T1, human HER2 expressed on cells (cancer …); test: imaging, Alexa647-labelled antibody on MDA-MB-361 cells at 4 C; competitors hHER2-MMH + hAPLP2-MMH
Protocol: (§5) For the assay, cells were plated on collagen-coated, black wall, 96-well, optical plates (Greiner, Cat #655936) at 2.5×10⁵ cells per well in their appropriate culture media (described in previous examples), and incubated overnight at 37° C. in 5% CO₂. The next day, the cells were placed in refrigeration at 4° C. for 30 minutes. […] To each antibody solution, either PBS alone, human HER2 extracellular domain expressed with a C-terminal myc-myc-hexahistidine tag (hHER2-MMH; SEQ ID NO: 53) alone, human APLP2 extracellular domain expressed with a C-terminal myc-myc-hexahistidine tag (hAPLP2-MMH; SEQ ID NO: 54) alone, or the combination of hHER2-MMH and hAPLP2-MMH was added at a concentration of […]. After incubation, and removal of culture media, 50 μL/well of the bispecific antibody and soluble protein solutions were added to the cells for 30 minutes at 4° C. The cells were subsequently washed with 150 μL/well of DMEM containing 10% FBS at 4° C. for 10 minutes. […] The fixing buffer was then removed, 100 uL of DPBS/CM was added and allowed to incubate for approximately 20 minutes at room temperature prior to image acquisition. Binding of the bispecific antibodies to each of the cell types was measured using an Image Xpress^Micro automatic microscope (Molecular Devices). Data acquired was analyzed using MetaXpress software (Molecular Devices). […]

[16] = molecular target: T1, human HER2 expressed on cells (cancer …); test: imaging, Alexa647-labelled antibody on MDA-MB-361 cells at 4 C; competitor hAPLP2-MMH
Protocol: as §5

[17] = molecular target: T1, human HER2 expressed on cells (cancer …); test: imaging, Alexa647-labelled antibody on MDA-MB-361 cells at 4 C; No Block
Protocol: as §5

[18] = molecular target: T1, human HER2 expressed on cells (cancer …); test: imaging, Alexa647-labelled antibody on MDA-MB-361 cells at 4 C; competitor hHER2-MMH
Protocol: as §5

T2 sequence (Q06481 other isoform, or with tags, fused parts or gaps): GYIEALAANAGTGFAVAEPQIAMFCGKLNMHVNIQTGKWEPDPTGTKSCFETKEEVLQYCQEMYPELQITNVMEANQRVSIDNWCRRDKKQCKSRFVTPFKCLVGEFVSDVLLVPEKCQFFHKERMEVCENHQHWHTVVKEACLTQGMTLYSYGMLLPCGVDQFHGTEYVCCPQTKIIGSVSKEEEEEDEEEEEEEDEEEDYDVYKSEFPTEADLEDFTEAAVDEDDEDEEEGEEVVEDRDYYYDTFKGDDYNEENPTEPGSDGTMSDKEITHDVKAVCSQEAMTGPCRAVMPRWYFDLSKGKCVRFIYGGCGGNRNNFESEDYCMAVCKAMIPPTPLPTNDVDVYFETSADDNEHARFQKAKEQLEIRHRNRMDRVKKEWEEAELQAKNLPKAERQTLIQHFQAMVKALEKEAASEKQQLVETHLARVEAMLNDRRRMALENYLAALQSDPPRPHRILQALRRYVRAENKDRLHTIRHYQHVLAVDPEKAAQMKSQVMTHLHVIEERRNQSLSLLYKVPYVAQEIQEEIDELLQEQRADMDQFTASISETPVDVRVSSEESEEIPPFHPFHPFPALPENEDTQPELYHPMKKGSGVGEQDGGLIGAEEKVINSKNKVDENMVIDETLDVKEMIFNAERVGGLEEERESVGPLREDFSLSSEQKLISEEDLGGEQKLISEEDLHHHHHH

Binder	Antibody bound (% of highest) [1]	100 nM hAPLP2-MMH Bound (RU) [2]	Kd [2]	t½ [2]	90 nM hAPLP2-MMH Bound (RU) [3]	Kd [3]	t½ [3]	Antibody bound (% of highest) [4]	Antibody bound (% of highest) [5]	Antibody bound (% of highest) [6]	Kd [7]	Antibody bound (% of highest) [8]	Antibody bound (% of highest) [9]	Antibody bound (% of highest) [10]	Antibody bound (% of highest) [11]	Kd [12]	t½ [12]	Antibody bound (% of highest) [13]	Antibody bound (% of highest) [14]	t½ [7]	other results
H4H25018D (bispecific antibody, IgG4, V domains shown, Wild-type kappa CL and a modified (chimeric) IgG4 CH domain as set forth in US20140243504A1; also called bispecific anti-HER2xAPLP2 antibody) VH 1: QVQLQESGPGLVKPSQTLSLTCTVSGGSISSGHYFWSWIRQHPGKGLEWIGYIFYSGSTHYNPSLKSRLSISVDTSKNQFSLRLTSVTAADTAVYYCAREEGDYNFWDVDYVPGHFDYWGQGTLVTVSS VH 2: EVQLVESGGGLVQPGRSLRLSCVASGFTFADYAMHWVRQAPGKGLEWVSGISWNSGNIDYADSVKGRFTISRDNAKNSLYLQMNSLRTEDTALYYCAKVRIVVAGYYYYYYGMDVWGQGTTVTVSS VL: not shown	25%	49 RU	145 nM	1.2 min	30.2 RU	15.6 nM	6.8 min	16%	1%	9%	4.21 nM	30%	5%	3%	17%	16.6 nM	7.7 min	100%	6%		
H4H25020D (bispecific antibody, IgG4, V domains shown, Wild-type kappa CL and a modified (chimeric) IgG4 CH domain as set forth in US20140243504A1; also called bispecific anti-HER2xAPLP2 antibody) VH 1: QVQLQESGPGLVKPSQTLSLTCTVSGGSISSGHYFWSWIRQHPGKGLEWIGYIFYSGSTHYNPSLKSRLSISVDTSKNQFSLRLTSVTAADTAVYYCAREEGDYNFWDVDYVPGHFDYWGQGTLVTVSS VH 2: QVQLVQSGVEVKKPGASVKVSCKASGYTFTDYGISWVRQAPGQGLEWMGWISAHNGNTNYAQKLQGRVTMTTDTSTNTAYMELRSLRSDDTAVYYCARRNWKYFDYWGQGTLVTVSS VL: not shown	24%	30 RU	844 nM	0.03 min				15%	1%	8%	4.2 nM	27%	5%	6%	18%			100%	5%		
H4H25017D (bispecific antibody, IgG4, V domains shown, Wild-type kappa CL and a modified (chimeric) IgG4 CH domain as set forth in US20140243504A1; also called bispecific anti-HER2xAPLP2 antibody) VH 1: QVQLVQSGPEVKKPGASVKVSCKASGYTFPNFGISWVRQAPGQGLEWMGWIAPYNVATNYAPKLQGRVTMTTDTSTSTAYMELRSLRSDDTAVYYCARWGAGYMGYYYYGMDVWGQGTTVTVSS VH 2: EVQLVESGGGLVQPGGSLRLSCAASGFTFSTYVMSWVRQAPGKGPEWVSGISGRTGTTYYADSVKGRFTISRDNSKNTLYLQMNSLRAEDTAVYYCASRITAAGRGYYYYYGMDVWGRGTTVTVSS VL: not shown	31%	13 RU	281 nM	1.2 min	13.4 RU	8.5 nM	14.8 min	22%	1%	10%	4.85 nM	35%	7%	4%	17%			100%	9%	13 min	Bispecific antibody signal (Fold over blank) [15]: 5 fold over blank; Bispecific antibody signal (Fold over blank) [16]: 13 fold over blank; koff [2]: 0.00977 s⁻¹; kon [2]: 34700 M⁻¹ s⁻¹; koff [3]: 0.000782 s⁻¹; kon [3]: 92000 M⁻¹ s⁻¹; Bispecific antibody signal (Fold over blank) [17]: 14 fold over blank; koff [7]: 0.0009 s⁻¹; kon [7]: 186000 M⁻¹ s⁻¹; Bispecific antibody signal (Fold over blank) [18]: 3 fold over blank
H4H25019D (bispecific antibody, IgG4, V domains shown, Wild-type kappa CL and a modified (chimeric) IgG4 CH domain as set forth in US20140243504A1; also called bispecific anti-HER2xAPLP2 antibody) VH 1: QVQLVQSGPEVKKPGASVKVSCKASGYTFPNFGISWVRQAPGQGLEWMGWIAPYNVATNYAPKLQGRVTMTTDTSTSTAYMELRSLRSDDTAVYYCARWGAGYMGYYYYGMDVWGQGTTVTVSS VH 2: EVQLVESGGGLVQPGRSLRLSCVASGFTFADYAMHWVRQAPGKGLEWVSGISWNSGNIDYADSVKGRFTISRDNAKNSLYLQMNSLRTEDTALYYCAKVRIVVAGYYYYYYGMDVWGQGTTVTVSS VL: not shown	30%	48 RU	183 nM	1.1 min	30.6 RU	14.6 nM	8.7 min	22%	1%	6%		32%	9%	2%	15%	17.2 nM	6.7 min	100%	7%	11 min	
